Assay results reported in US20200131515.

Legend:
Test in all cases: SPR
[1] = tested on: H-LDL particle (small dense LDL); conditions: 5' disulfide, unit inferred
[2] = tested on: HDL particle (high-density lipoprotein); conditions: 5' disulfide; 100 nM HDL, selection buffer
[3] = tested on: LDL particle (low-density lipoprotein, apoB-containing), commercial; conditions: 5' disulfide
[4] = tested on: L-LDL particle (large fluffy LDL); conditions: 5' disulfide; unit inferred
[5] = 1 nM LDL added to 1% blood serum in selection buffer
[6] = 1 nM LDL, selection buffer, repeat on gold chip
[7] = aptamer on gold chip, unit inferred
[8] = printed kD differs from kd/ka of same row

| Sequence | Kd [1] [nM] | Kd [2] [nM] | Kd [3, 5] [nM] | Kd [3, 6] [nM] | Kd [3, 7] [nM] | Kd [4] [nM] | Kd [1, 8] [nM] |
| --- | --- | --- | --- | --- | --- | --- | --- |
| AACTACATGGTATGTGGTGAACTAACCTTAATTTACCCTTGTTTTATCATTTCCATCATAGCTGACGTACAATGTACCC [LDL-A12] | 0.023 | 7.25 | 0.0466 | 0.0108 | 0.0497 |  |  |
| AACTACATGGTATGTGGTGAACTGTCAGCTTCTTCTATATAATTCACCTTGCCTCTCGTTCCTGACGTACAATGTACCC [LDL-A2] |  | 9.69 | 0.00512 | 0.015 | 0.0421 | 0.0159 |  |
| AACTACATGGTATGTGGTGAACTAAACCATTCTTGTCTCGCATTTTTCTCTTTTATATTATTTGACGTACAATGTACCC [LDL-A38] | 0.234 | 11.5 | 0.0178 | 0.0207 | 0.0455 |  |  |
| AACTACATGGTATGTGGTGAACTCACGCGCATAACCCTTTTTTCACCTGCCCTTTTAACTAATGACGTACAATGTACCC [LDL-A274] |  | 8.26 | 0.114 | 0.0214 | 0.0773 | 0.482 | 0.792 |
| AACTACATGGTATGTGGTGAACTACCTCGATTTTATATTATTTCGCTTACCAACAACTGCAGAGACGTACAATGTACCC [LDL-A1] |  | 9.01 |  | 0.00168 |  | 0.0327 | 1.23 |
